Data: US20190169289A1

How the values were obtained:
[1] = target: anti-GCN4 (52SR4 scFv) sCAR with CD8 hinge; assay: flow cytometry of CD8 sCAR T cells; filled histogram with a second peak at about 10^4 against a dashed control histogram; the legend names an AF647 conjugate, the axis prints APC
CART19 = assay: flow cytometry of CART19 T cells; filled histogram with a second population at about 10^3-10^4 against a dashed control histogram; the legend names an AF647 conjugate, the axis prints APC
Chain of CART19 (chimeric antigen receptor, as listed by the source limits assumed): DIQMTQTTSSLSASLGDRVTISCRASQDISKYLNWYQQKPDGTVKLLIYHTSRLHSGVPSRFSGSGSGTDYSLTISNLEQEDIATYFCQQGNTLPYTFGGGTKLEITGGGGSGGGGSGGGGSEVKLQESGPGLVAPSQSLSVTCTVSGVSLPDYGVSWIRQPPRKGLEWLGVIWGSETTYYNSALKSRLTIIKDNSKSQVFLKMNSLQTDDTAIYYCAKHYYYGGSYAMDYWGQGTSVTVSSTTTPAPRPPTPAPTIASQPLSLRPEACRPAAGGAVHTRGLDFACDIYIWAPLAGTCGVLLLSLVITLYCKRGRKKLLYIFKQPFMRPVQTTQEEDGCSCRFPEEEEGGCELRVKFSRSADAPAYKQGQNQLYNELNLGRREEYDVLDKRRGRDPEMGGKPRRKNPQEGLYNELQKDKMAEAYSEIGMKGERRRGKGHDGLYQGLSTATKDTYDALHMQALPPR

[2] = target: HLA molecules on T2 cells loaded with the NY-ESO-1 peptide; assay: cell-based or functional assay

Chain of anti-GCN4 (52SR4 scFv) sCAR with CD8 hinge (chain, as listed by the source limits assumed): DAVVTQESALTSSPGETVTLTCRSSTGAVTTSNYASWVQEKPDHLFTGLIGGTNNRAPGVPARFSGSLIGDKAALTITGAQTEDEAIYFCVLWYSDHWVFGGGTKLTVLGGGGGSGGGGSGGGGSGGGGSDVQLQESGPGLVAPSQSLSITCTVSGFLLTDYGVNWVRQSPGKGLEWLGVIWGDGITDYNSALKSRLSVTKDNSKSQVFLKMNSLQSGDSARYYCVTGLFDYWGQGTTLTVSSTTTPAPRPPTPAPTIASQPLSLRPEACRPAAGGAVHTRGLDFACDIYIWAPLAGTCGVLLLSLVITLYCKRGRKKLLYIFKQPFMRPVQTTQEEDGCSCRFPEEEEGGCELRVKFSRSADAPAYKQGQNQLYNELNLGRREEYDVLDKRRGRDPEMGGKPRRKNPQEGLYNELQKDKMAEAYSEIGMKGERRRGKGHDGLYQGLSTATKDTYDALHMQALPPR

number beside the gate bar of the histogram (share of cells in the positive gate; name not given) [1]	number beside the gate bar of the histogram (share of cells in the positive gate; name not given) (CART19)	sTCR switch concentration at which IFNg, IL-2 and TNFa are produced [2] [pM]	sTCR switch concentration at which T cells express CD25 and CD69 [2] [pM]	Substance
69.3	53.3			APC-conjugated goat-anti mouse IgG (H&L) polyclonal antibody
		> 10	> 1	NY-ESO-1 specific soluble TCR 1G4c113 with C-terminal GCN4 peptide and 6x HIS tag on the beta chain
